Earlier results on 2 substances are cited in PMC3359799.

By Kd is commonly meant the equilibrium constant for the complex coming apart.

Like-named read-outs stand apart in the source and are kept apart here.

In data set [1] the target is GLP-1 (Homo sapiens) (UniProt P01275).
Data set [2] has the same target. This is another data set of the same source.
In data set [3] the target is Exendin-4 (Heloderma suspectum) (UniProt P26349).
Data set [4] has the same target. The experiment in a line: surface plasmon resonance. For orientation: SPR reads the build-up and loss of mass on a sensor chip optically.
Data set [5] deals with GLP-1 (Homo sapiens) (UniProt P01275). This is another data set of the same source.
Data set [6] concerns the target Exendin-4 (Heloderma suspectum) (UniProt P26349). The source holds these as a separate data set.

UniProt P26349, sequence (P26349 48-86): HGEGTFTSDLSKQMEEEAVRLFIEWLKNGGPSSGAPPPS
UniProt P01275, sequence (P01275 98-127): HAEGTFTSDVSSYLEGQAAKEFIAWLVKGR

Regarding “GLP-1 receptor ECD (from UniProt P43220)”, the Kd in data set [1] is 800 nM; in data set [2] it was 1000 nM; in data set [3], 13 nM; in data set [4] it was 900 nM.
In the case of GLP-1 receptor (from UniProt P43220), the dissociation constant Kd in data set [5] was 0.3 nM; in data set [6] it was 0.1 nM.
